Entries after “also recorded” stand apart in the source; their conditions may differ.
System: HLA-B*0702 transgenic mice
Assay: Vaccination of HLA-B*0702 transgenic mice (peptide + IC31), IFN-gamma ELISpot with spleen cells and CD8+ fraction
Format: in vivo, mouse
Details: for specific INF-γ producing T cells / HLA-B*0702 epitope in HLA-B*0702 transgenic mice (in words): peptide + IC31, whole spleen cells and CD8+ fraction
Procedure: Mouse splenocyte ELIspot assay for single cell IFN-gamma release ELISpot plates (MAHA S4510, Millipore, Germany) were rinsed with PBS (200 μl/well), coated with anti-mouse IFN-gamma mAb (clone R46A2; 100 μl/well of 5 μg/ml in 0.1 M NaHCO3, pH 9.2-9.5) and incubated overnight at 4° C. Plates were washed four times with PBS/0.1% Tween 20 and incubated with PBS/1% BSA (200 μl/well) at room temperature for 2 h to block nonspecific binding. Spleen cells from vaccinated mice were prepared and plated at 1×10^6-3×10^5 cells/well and incubated overnight at 37° C./5% CO2 either in the presence of the immunizing antigen (peptide), control peptides or with medium alone. Subsequently, plates were washed four times and incubated with biotinylated anti-mouse IFN-gamma mAb (clone AN18.17.24, 100 μl/well of 2 μg/ml in PBS/1% BSA) for 2 h at 37° C. After washing, streptavidin-peroxidase (Roche Diagnostics, Vienna, Austria) was added ( 1/5000 in PBS, 100 μl/well) and plates were incubated at room temperature for 2 additional hours. Subsequently, substrate was added to the washed plates (100 μl/well of a mixture of 10 ml 100 mM Tris pH 7.5 supplemented with 200 μl of 40 mg/ml DAB stock containing 50 μl of 80 mg/ml NiCl2 stock and 5 μl of 30% H2O2). The reaction was stopped after 20-30 minutes by washing the plates with tap water. Dried plates were evaluated with an ELISpot reader (BIOREADER 2000, BioSys, Karben, Germany).
Groups of 5 mice (HLA-A*0201-, HLA-DRB1*0401- and HLA-B*0702 transgenic mice, male, 8-14 weeks of age) were injected subcutaneous into the hind footpads with 100 μg of peptide +IC31 per mouse (50 μg per footpad). (PCT/EP01/12041, WO 02/32451 A1 and PCT/EP01/06433, WO 01/93905 A1; IC31 is a combination of the immunizer disclosed in WO 01/93905 and WO 02/32451). […]

B1: MSTNPKPQRKTKRNTNRRPQDVKFPGGGQIVGGVYLLPRRGPRLGVRATRKTSERSQPRGRRQPIPK (peptide)
peptide: MSTNPKPQRKTKRNTNRRPQDVKFPGGGQIVGGVYLLPRRGPRLGVRATRKTSERSQPRGRRQPIPK
Immunogenicity, peptide-specific IFN-gamma-producing cells, B*0702 (HLA-B*0702 transgenic mice, splenocytes): + (immunogenic (+, less than 100 peptide-specific cells among a million splenocytes)) | specific INF-γ producing T cells / HLA-B*0702 epitope in HLA-B*0702 transgenic mice (in words): confirmed to contain human HLA-B*0702 epitopes; also recorded: HLA-B*0702 epitopes with T-cell activating capacity | specific INF-γ producing T cells / HLA-B*0702 epitope in HLA-B*0702 transgenic mice (in words) (listed as Ipep1506): significant interferon-gamma induction

Reference: US7378234B2, “Method for isolating hepatitis C virus peptides” (Intercell AG, priority 2002, dated 2008)
